Reference: article PMC8979966

B1: TCR 868 CDR3-alpha fragment GAHDYALN, as printed (the 868 form used here; an outside source, not checked, gives natural 868 a different CDR3-alpha) (parent)
chain: GAHDYALN

Variants of: B1
Assay: YAMTAD yeast mating, deep sequencing; 2 biological x 4 technical repeats
Settings: with SL9 ([…]) on HLA-A*02:01, single chain; S. cerevisiae mating; SL9 group vs negative-control group; higher = more enriched with SL9 than with the negative controls; the paper calls a variant enriched at SL9/NC > 1 and P < 0.05; unresolved parent; not an affinity; keep out of graded; scale: ratio 'SL9/NC': mean frequency in the SL9-HLA-A*02:01 group / mean frequency in the sheet's 'NC' group, each normalised …; numbering: sequential-on-construct, sequence starts at 1

In order of rising screen value:
1. GLHDYALN  1.06
2. GACDYALN  1.13
3. LAHDYALN  1.21
